Starred links: 1 amine or outer side, 2 acyl side, 3 side chain; linkers in the order of their positions; H or OH if unused. Non-standard residues stand in square brackets, D forms with d. Groups on a side chain read outwards from the residue. No end group written: not given here. *: point of attachment. C20 diacid = O=C(O)CCCCCCCCCCCCCCCCCCC(=O)*; C18 diacid = O=C(O)CCCCCCCCCCCCCCCCC(=O)*; γGlu = O=C(O)[C@H](CCC(=O)[*:2])N[*:1]; εLys = N[C@@H](CCCCN[*:1])C(=O)[*:2]; AEEA = NCCOCCOCC(=O)O; Aib = CC(C)(N)C(=O)O
T1: human GIP receptor (human, UniProt P48546 22-466)
T1 sequence (looked up): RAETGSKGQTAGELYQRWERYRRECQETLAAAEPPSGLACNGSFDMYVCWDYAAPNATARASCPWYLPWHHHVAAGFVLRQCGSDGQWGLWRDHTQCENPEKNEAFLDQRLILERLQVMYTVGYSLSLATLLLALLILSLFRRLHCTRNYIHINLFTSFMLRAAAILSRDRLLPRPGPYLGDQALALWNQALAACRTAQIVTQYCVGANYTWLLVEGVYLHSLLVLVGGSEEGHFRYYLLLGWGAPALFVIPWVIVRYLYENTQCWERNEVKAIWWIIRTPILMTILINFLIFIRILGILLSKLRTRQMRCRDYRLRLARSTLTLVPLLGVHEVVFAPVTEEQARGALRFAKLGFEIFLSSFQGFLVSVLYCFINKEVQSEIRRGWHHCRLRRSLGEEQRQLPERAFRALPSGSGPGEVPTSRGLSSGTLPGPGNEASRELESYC

T2: human neuropeptide Y2 receptor (human, UniProt P49146 1-381)
T2 sequence (looked up): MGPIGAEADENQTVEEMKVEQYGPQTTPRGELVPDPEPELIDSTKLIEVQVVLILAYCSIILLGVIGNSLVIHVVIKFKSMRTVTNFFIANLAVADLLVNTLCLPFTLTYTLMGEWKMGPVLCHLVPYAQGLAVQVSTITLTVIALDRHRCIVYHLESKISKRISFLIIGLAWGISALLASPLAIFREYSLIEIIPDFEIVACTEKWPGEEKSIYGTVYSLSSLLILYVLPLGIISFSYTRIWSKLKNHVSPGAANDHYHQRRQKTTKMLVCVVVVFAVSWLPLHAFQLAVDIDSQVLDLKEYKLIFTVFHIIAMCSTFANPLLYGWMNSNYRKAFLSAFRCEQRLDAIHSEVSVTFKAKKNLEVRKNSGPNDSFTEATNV


What was measured:
Experiment in all cases: cell-based or functional assay
human GIP receptor = molecular target: T1, human GIP receptor
human GLP-1 receptor = human GLP-1 receptor (human, UniProt P43220 24-463)
[1] = molecular target: T2, human neuropeptide Y2 receptor

Binder | EC50 CreLuc hGIPR 0.5% hP (human GIP receptor) [nM] | EC50 CreLuc hGIPR 100% hP (human GIP receptor) [nM] | EC50 CreLuc hGLP1R 0.5% hP (human GLP-1 receptor) [nM] | EC50 CreLuc hGLP1R 100% hP (human GLP-1 receptor) [nM] | EC50 CreLuc hNPY2R 0.5% hP [1] [nM] | EC50 CreLuc hNPY2R 100% hP [1] [nM]
Y[Aib]EGTFTSDYSI[Aib]LEKQAQ[Aib]AFVQWLIK([εLys-γGlu-γGlu-γGlu-γGlu-γGlu-C20 diacid])GGPSEPASLRHYYNWLTRQRY-NH2 [Compound 169] | 0.26 | 3.15 | 0.13 | 7.3 | 10.3 | 50.3
Y[Aib]EGTFTSDYSI[Aib]LEKQAQ[Aib]AFVQWLIK([εLys-γGlu-γGlu-γGlu-Glu-γGlu-γGlu-γGlu-C20 diacid])GGPSSGASLRHYYNWLTRQRY-NH2 [Compound 92] | 0.33 | 1.64 | 0.08 | 3.16 | 7.48 | 27.9
Y[Aib]EGTFTSDYSI[Aib]LEKQAQ[Aib]EFVEWLIK([εLys-γGlu-γGlu-γGlu-γGlu-γGlu-γGlu-γGlu-C20 diacid])GGPSSGASLRHYYNWLTRQRY-NH2 [Compound 88] | 0.53 | 1.58 | 1.12 | 7.18 | 20.4 | 45.4
Y[Aib]EGTFTSDYSI[Aib]LEKQAQ[Aib]EFVEWLIK([AEEA-AEEA-γGlu-γGlu-γGlu-C18 diacid])GGPSSGASLRHYYNWLTRQRY-NH2 [Compound 171] | 0.2 | 0.83 | 0.27 | 4.17 | 7.51 | 30.4
YXEGTFTSDYSIXLEKQAQXAFVQWLIKGGPSSGASLRHYYNWLTRQRY (Aib at 2, 13, 20; K28 side chain: C18DA-gGlu-gGlu-gGlu-gGlu-gGlu-gGlu-eLys; C-terminal NH2) [Compound 170] | 0.24 | 1.15 | 0.09 | 0.98 | 19.2 | 33.2
YXEGTFTSDLSIXLEKQAQXAFVEWLIKGGPSSGASLRHYYNWLTRQRY (Aib at 2, 13, 20; K28 side chain: C20DA-gGlu-gGlu-gGlu-gGlu-gGlu-gGlu-eLys; C-terminal NH2) [Compound 172] | 0.21 | 1.83 | 0.07 | 2 | 20.2 | 86.1
YXEGTFTSDYSIXLEDQAQXAFVEWLIKGGPSSGASLRHYYNWLTRQRY (Aib at 2, 13, 20; K28 side chain: C20DA-gGlu-gGlu-gGlu-gGlu-gGlu-gGlu-eLys; C-terminal NH2) [Compound 90] | 1.03 | 6.75 | 0.3 | 5.39 | 18.4 | 71.9
YXEGTFTSDYSIXLEKQAQXAFVEWLIKGGPSSGATLRHYYNWLTRQRY (Aib at 2, 13, 20; K28 side chain: C20DA-gGlu-gGlu-gGlu-gGlu-gGlu-gGlu-eLys; C-terminal NH2) [Compound 91] | 0.21 | 1.72 | 0.17 | 4.16 | 16.2 | 53.1
YXEGTFTSDYSIXLEKQAQXAFVQWLIKGGPEEGASLRHYYNWLTRQRY (Aib at 2, 13, 20; K28 side chain: C20DA-gGlu-gGlu-gGlu-gGlu-gGlu-gGlu-eLys; C-terminal NH2) [Compound 89] | 1.01 | 1.7 | 0.25 | 8.9 | 14.8 | 42.4

Source: patent US20240247080A1, “GLP1/GIP/NPY2 RECEPTOR TRIPLE AGONISTS” (Boehringer Ingelheim International GmbH, priority 2022, published 2024)
